Experimental data published in paper PMC2818592.

B1: aptamer-primer complex (anti-PDGF-BB aptamer with 3' RCA primer) (structured_DNA)
DNA: TACTCAGGGCACTGCAAGCAATTGTGGTCCCAATGGGCTGAGTATTTTTTTTGTCCGTGCTAGAAGGAAACAGTTAC

Experiments:
[1] = biological target: T1, PDGF-BB (platelet-derived growth factor B-chain homodimer) (UniProt P01127 82-190); experiment: optical diffraction sandwich assay with RCA and microbeads
[2] = biological target: T1, PDGF-BB (platelet-derived growth factor …); experiment: microbead sandwich assay without RCA

T1 sequence (P01127 82-190): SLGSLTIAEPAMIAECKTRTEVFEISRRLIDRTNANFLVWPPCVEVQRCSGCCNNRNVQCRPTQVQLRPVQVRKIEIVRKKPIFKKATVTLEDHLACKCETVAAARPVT

| Binder | binding result [1] | binding result [2] |
| --- | --- | --- |
| B1 | binds | – |
| TACTCAGGGCACTGCAAGCAATTGTGGTCCCAATGGGCTGAGTATTTTTT (structured_DNA) [capture aptamer (anti-PDGF-BB)] | – | binds |
